Test results published in US20260248972A1, “DUAL RECEPTOR TARGETING RADIOLIGANDS AND USES THEREOF RELATED APPLICATIONS” (priority 2022, published 2026).
Blank lines part the entries; values can stand above or below the compound they belong to.

What was measured:
CCK2R [1] = biological target: T1, CCK2R (Homo sapiens, UniProt P32239); experiment: Competitive binding (FACS) on CCK2R-transfected HEK 293T cells with Cy5-labeled F11N derivative; details: HEK 293T transfected, Cy5-labeled F11N derivative competitive ligand (Table 4); read-out: CCK2R IC50
T1 construct: expressed in transfected cells; host or cells: HEK 293T cells
T1 sequence (P32239 1-447): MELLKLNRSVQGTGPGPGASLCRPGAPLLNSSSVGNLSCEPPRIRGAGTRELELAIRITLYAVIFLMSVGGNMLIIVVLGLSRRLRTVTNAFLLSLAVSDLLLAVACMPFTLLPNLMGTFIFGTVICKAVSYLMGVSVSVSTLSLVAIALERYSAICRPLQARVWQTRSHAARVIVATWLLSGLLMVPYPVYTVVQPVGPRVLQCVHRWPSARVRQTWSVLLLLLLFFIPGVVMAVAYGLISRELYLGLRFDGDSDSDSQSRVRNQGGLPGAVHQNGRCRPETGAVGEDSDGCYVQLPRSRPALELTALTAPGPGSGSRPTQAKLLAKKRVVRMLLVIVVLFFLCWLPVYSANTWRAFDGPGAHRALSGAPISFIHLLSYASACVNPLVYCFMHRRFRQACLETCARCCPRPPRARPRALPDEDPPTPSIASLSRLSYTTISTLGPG

CCK2R [2] = biological target: T1, CCK2R; experiment: Competitive binding (FACS) on CCK2R-transfected HEK 293T cells with Cy5-labeled Z360; details: HEK 293T transfected, Cy5-labeled Z360 competitive ligand (Table 3)
Experimental: Binding Affinity Tested by Using Cy5-Labled Competitive Ligands.
HEK 293T cells were transfected with SSTR2 or CCK2R-expressing plasmid by Lipofectamine 2000 reagent. 24 hours after transfection, cells were harvested and suspended with assay buffer (1% OVA in DMEM). […] The testing compound was further supplemented into the wells at different concentrations. After incubation for 1 hour at dark, cells were washed and suspended in FACS buffer (1% OVA in DPBS). The fluorescent signal was detected by FACS machine and the binding affinity of the testing compound was evaluated by calculation of IC50 for competitive binding of reference compound.

in vivo = details: BALB/c nude, mouse, in vivo, iv, total radioactivity
Method in brief: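 Tissue uptake given as % ID and % ID/g from γ counting of organs taken 4, 24 and 72 h after injection into BALB/c nude mice carrying subcutaneous AR42J xenografts (0.05-0.50 g). Tracers were ^177Lu-labelled at 95° C for 15 min in pH 4.5 NaOAc buffer and used neat or diluted in PBS containing 3 mg/mL ascorbate.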

CCK2R [3] = biological target: T2, CCK2R (Rattus norvegicus, UniProt P30553); experiment: Competitive cell-binding assay on AR42J cells with 125I-C3 as competitive ligand; details: based on mean IC50, C-2 = 1.00
T2 construct: host or cells: AR42J cells
T2 sequence (P30553 1-452): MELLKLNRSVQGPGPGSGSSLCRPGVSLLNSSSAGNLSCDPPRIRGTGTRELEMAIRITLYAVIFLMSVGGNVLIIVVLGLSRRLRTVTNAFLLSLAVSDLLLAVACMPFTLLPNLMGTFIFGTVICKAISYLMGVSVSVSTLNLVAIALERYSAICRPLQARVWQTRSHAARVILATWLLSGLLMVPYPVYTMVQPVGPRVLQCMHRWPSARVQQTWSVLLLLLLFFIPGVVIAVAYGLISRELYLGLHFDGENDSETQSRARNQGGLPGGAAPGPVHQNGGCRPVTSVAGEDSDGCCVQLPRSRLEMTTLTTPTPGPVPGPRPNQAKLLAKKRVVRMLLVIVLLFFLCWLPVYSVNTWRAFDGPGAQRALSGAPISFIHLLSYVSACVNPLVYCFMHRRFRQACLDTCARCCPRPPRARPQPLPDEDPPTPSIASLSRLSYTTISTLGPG
Method in brief: (§1)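 Displacement of 125I-C1 or 125I-C3 tracer (0.02 μCi/well) by 0-10000 nM compound measured in triplicate on suspended AR42J cells in BSA-containing RPMI-1640, 37° C. for 1 h. After filtration washes, filter-bound counts gave IC50 via nonlinear regression fit.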

SSTR2 = biological target: T3, SSTR2 (Rattus norvegicus, UniProt P30680); experiment: Competitive cell-binding assay on AR42J cells with 125I-C1 as competitive ligand; details: based on mean IC50, C-1 = 1.00
T3 construct: host or cells: AR42J cells
T3 sequence (P30680 whole entry): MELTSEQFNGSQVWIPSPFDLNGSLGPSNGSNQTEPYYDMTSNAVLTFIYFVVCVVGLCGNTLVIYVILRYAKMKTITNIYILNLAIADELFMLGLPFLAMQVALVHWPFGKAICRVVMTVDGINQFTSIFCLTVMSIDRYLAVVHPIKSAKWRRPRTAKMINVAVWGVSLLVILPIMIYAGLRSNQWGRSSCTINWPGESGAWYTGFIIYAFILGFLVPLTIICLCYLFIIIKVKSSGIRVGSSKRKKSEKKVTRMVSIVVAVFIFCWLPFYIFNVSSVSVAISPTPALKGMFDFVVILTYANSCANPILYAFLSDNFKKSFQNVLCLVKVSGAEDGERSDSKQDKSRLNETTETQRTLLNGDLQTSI
Method in brief: as §1

SMILES: C[C@@H](O)[C@H](NC(=O)[C@@H]1CSSC[C@H](NC(=O)[C@@H](Cc2ccccc2)NC(=O)[C@H](CCCCNC(=O)COCCOCCNC(=O)[C@H](CCC(=O)O)NC(=O)c2cccc(NC(=O)N[C@@H]3CN(C4CCCCC4)c4ccccc4N(CC(=O)C(C)(C)C)C3=O)c2)NC(=O)CN2CCN(CC(=O)O)CCN(CC(=O)O)CCN(CC(=O)O)CC2)C(=O)N[C@@H](Cc2ccc(O)cc2)C(=O)N[C@H](Cc2c[nH]c3ccccc23)C(=O)N[C@@H](CCCCN)C(=O)N[C@@H]([C@@H](C)O)C(=O)N1)C(=O)O [Compound I-28, DOTA-K(-OEG-E-Z360)-f[CYwKTC]T-OH]
IC50 (CCK2R [2]): 4.84 nM

SMILES: C[C@@H](O)[C@H](NC(=O)[C@@H]1CSSC[C@H](NC(=O)[C@@H](Cc2ccccc2)NC(=O)[C@H](CCCCNC(=O)COCCOCCNC(=O)COCCOCCNC(=O)[C@H](CCC(=O)O)NC(=O)c2cccc(NC(=O)N[C@@H]3CN(C4CCCCC4)c4ccccc4N(CC(=O)C(C)(C)C)C3=O)c2)NC(=O)CN2CCN(CC(=O)O)CCN(CC(=O)O)CCN(CC(=O)O)CC2)C(=O)N[C@@H](Cc2ccc(O)cc2)C(=O)N[C@H](Cc2c[nH]c3ccccc23)C(=O)N[C@@H](CCCCN)C(=O)N[C@@H]([C@@H](C)O)C(=O)N1)C(=O)O [Compound I-29, DOTA-K(-OEG-OEG-E-Z360)-f[CYwKTC]T-OH]
IC50 (CCK2R [2]): 0.46 nM

SMILES: CCCC[C@H](NC(=O)[C@H](Cc1c[nH]c2ccccc12)NC(=O)CNC(=O)[C@H](Cc1ccc(O)cc1)NC(=O)[C@H](C)NC(=O)[C@@H](CCC(=O)O)NC(=O)[C@@H](CCC(=O)O)NC(=O)[C@@H](CCC(=O)O)NC(=O)[C@@H](CCC(=O)O)NC(=O)[C@@H](CCC(=O)O)NC(=O)[C@@H](CCC(=O)O)NC(=O)CN1CCN(CC(=O)O)CCN(CC(=O)O)CCN(CC(=O)O)CC1)C(=O)N[C@@H](CC(=O)O)C(=O)N[C@@H](Cc1ccccc1)C(N)=O [Compound C5, DOTA-e-e-e-e-e-e-Ala-Tyr-Gly-Trp-Nle-Asp-Phe-NH2, reference compound]
IC50 (CCK2R [1]): 25.7 nM

SMILES: C[C@@H](O)[C@H](NC(=O)[C@@H]1CSSC[C@H](NC(=O)[C@@H](Cc2ccccc2)NC(=O)[C@H](CCCCNC(=O)CC[C@H](NC(=O)CNC(=O)c2cccc(NC(=O)N[C@@H]3CN(C4CCCCC4)c4ccccc4N(CC(=O)C(C)(C)C)C3=O)c2)C(=O)O)NC(=O)CN2CCN(CC(=O)O)CCN(CC(=O)O)CCN(CC(=O)O)CC2)C(=O)N[C@@H](Cc2ccc(O)cc2)C(=O)N[C@H](Cc2c[nH]c3ccccc23)C(=O)N[C@@H](CCCCN)C(=O)N[C@@H]([C@@H](C)O)C(=O)N1)C(=O)O [Compound I-26, DOTA-K(-gE-G-Z360)-f[CYwKTC]T-OH]
IC50 (CCK2R [2]): 2.67 nM

SMILES: C[C@@H](O)[C@H](NC(=O)[C@@H]1CSSC[C@H](NC(=O)[C@@H](Cc2ccccc2)NC(=O)[C@H](CCCCNC(=O)CC[C@H](NC(=O)CNC(=O)c2cccc(NC(=O)N[C@@H]3CN(C4CCCCC4)c4ccccc4N(CC(=O)C(C)(C)C)C3=O)c2)C(=O)O)NC(=O)COCCOCCNC(=O)CCC(C(=O)O)N2CCN(CC(=O)O)CCN(CC(=O)O)CCN(CC(=O)O)CC2)C(=O)N[C@@H](Cc2ccc(O)cc2)C(=O)N[C@H](Cc2c[nH]c3ccccc23)C(=O)N[C@@H](CCCCN)C(=O)N[C@@H]([C@@H](C)O)C(=O)N1)C(=O)O (stereo partly drawn) [Compound I-19, DOTAGA- OEG- K(-gE- G- Z360)- f[CYwKTC]T- OH]
tissue to tissue ratio at 24 h (in vivo; T/K Tumor/Kidney ratio): 0.6
tissue to tissue ratio at 24 h (in vivo; T/L Tumor/Liver ratio): 35
tissue to tissue ratio at 24 h (in vivo; T/P Tumor/Pancreas ratio): 15
tissue to tissue ratio at 24 h (in vivo; T/Sp Tumor/Spleen ratio): 46
tissue to tissue ratio at 24 h (in vivo; T/St Tumor/Stomach ratio): 4.3
tissue uptake at 24 h (in vivo; uptake Kidney): 51.6 %ID/g
tissue uptake at 24 h (in vivo; uptake Liver): 0.96 %ID/g
tissue uptake at 24 h (in vivo; uptake Pancreas): 2.07 %ID/g
tissue uptake at 24 h (in vivo; uptake Spleen): 0.68 %ID/g
tissue uptake at 24 h (in vivo; uptake Stomach): 7.24 %ID/g
tissue uptake at 24 h (in vivo; uptake Tumor): 31.3 %ID/g
Relative Binding Affinity CCK2R (CCK2R [3]): 270
Relative Binding Affinity SSTR2 (SSTR2): 0.46

Further lines, results first:

IC50 (CCK2R [1]): 56.7 nM
SMILES: C[C@@H](O)[C@H](NC(=O)[C@@H]1CSSC[C@H](NC(=O)[C@@H](Cc2ccccc2)NC(=O)COCCOCCNC(=O)COCCOCCNC(=O)CC[C@H](NC(=O)[C@H](CCCCNC(=O)c2cccc(NC(=O)CC3CN(C4CCCCC4)c4ccccc4N(CC(=O)C(C)(C)C)C3=O)c2)NC(=O)CN2CCN(CC(=O)O)CCN(CC(=O)O)CCN(CC(=O)O)CC2)C(=O)O)C(=O)N[C@@H](Cc2ccc(O)cc2)C(=O)N[C@H](Cc2c[nH]c3ccccc23)C(=O)N[C@@H](CCCCN)C(=O)N[C@@H]([C@@H](C)O)C(=O)N1)C(=O)O (stereo partly drawn) [Compound I-74, DOTA-K(Z360)-gGlu-OEG-OEG-f]CYwKTC]T-OH]

IC50 (CCK2R [2]): 1.36 nM
SMILES: C[C@@H](O)[C@H](NC(=O)[C@@H]1CSSC[C@H](NC(=O)[C@@H](Cc2ccccc2)NC(=O)[C@H](CCCCNC(=O)[C@H](CCC(=O)O)NC(=O)c2cccc(NC(=O)N[C@@H]3CN(C4CCCCC4)c4ccccc4N(CC(=O)C(C)(C)C)C3=O)c2)NC(=O)CN2CCN(CC(=O)O)CCN(CC(=O)O)CCN(CC(=O)O)CC2)C(=O)N[C@@H](Cc2ccc(O)cc2)C(=O)N[C@H](Cc2c[nH]c3ccccc23)C(=O)N[C@@H](CCCCN)C(=O)N[C@@H]([C@@H](C)O)C(=O)N1)C(=O)O [Compound I-25, DOTA-K(-E-Z360)-f[CYwKTC]T-OH]

IC50 (CCK2R [1]): 5.53 nM
SMILES: C[C@@H](O)[C@H](NC(=O)[C@@H]1CSSC[C@H](NC(=O)[C@@H](Cc2ccccc2)NC(=O)CCCCCNC(=O)CCCCCNC(=O)[C@H](CCCCNC(=O)[C@H](CCC(=O)O)NC(=O)c2cccc(NC(=O)N[C@@H]3CN(C4CCCCC4)c4ccccc4N(CC(=O)C(C)(C)C)C3=O)c2)NC(=O)CCC(C(=O)O)N2CCN(CC(=O)O)CCN(CC(=O)O)CCN(CC(=O)O)CC2)C(=O)N[C@@H](Cc2ccc(O)cc2)C(=O)N[C@H](Cc2c[nH]c3ccccc23)C(=O)N[C@@H](CCCCN)C(=O)N[C@@H]([C@@H](C)O)C(=O)N1)C(=O)O (stereo partly drawn) [Compound I-72, DOTAGA- K(-Glu- Z360)- Ahx- Ahx- f[CYwKTC]T- OH]

IC50 (CCK2R [2]): 7.13 nM
SMILES: CC(O)[C@H](NC(=O)[C@@H]1CSSC[C@H](NC(=O)[C@@H](Cc2ccccc2)NC(=O)COCCOCCNC(=O)[C@H](CCCCNC(=O)CCC(NC(=O)CNC(=O)c2cccc(NC(=O)N[C@@H]3CN(C4CCCCC4)c4ccccc4N(CC(=O)C(C)(C)C)C3=O)c2)C(=O)O)NC(=O)COCCOCCNC(=O)COCCOCCNC(=O)CC[C@H](NC(=O)CN2CCN(CC(=O)O)CCN(CC(=O)O)CCN(CC(=O)O)CC2)C(=O)O)C(=O)N[C@@H](Cc2ccc(O)cc2)C(=O)N[C@H](Cc2c[nH]c3ccccc23)C(=O)N[C@@H](CCCCN)C(=O)N[C@@H]([C@@H](C)O)C(=O)N1)C(=O)O (stereo in doubt) [Compound I-21, DOTA-gE-OEG-OEG-K(-gE-G-Z360)-OEG-f[CYwKTC]T-OH]
